Source: patent US20150086555A1

B1: TCN-527 (5086_C06) (antibody, V domains shown)
VH: QVQLQESGPGLVKPSETLSLNCAVSGGSISNYYWSWIRQPPGKGLEWIGYISYNGRPKYNPSLTSRVTISVDTSKDQFSLELRSVTAADTALYYCARETRFGELLSPYDAFEIWGQGTMVTVSS
VL: DIQMTQSPSSLSASVGDRVTMTCRASQNIRSYLNWYQQRPGTAPKLLIYAASTLHSGVPSRFSGGGSGTDFTLTINNLQPEDFASYYCQQSYDNPQTFGQGTKVEIK
B2: TCN-540 (5060_F05) (antibody, V domains shown)
VH: QVQLVQSGGGVVQPGRSLRLSCAASGFTFSSYAMHWVRQAPGKGLEWVAIISYDGNDQYYTDSVKGRFTISRDSSKVYLQMHRLRPEDTAVYYCAKEFETSGYFHGSFDYWGQGILVTVSS
VL: QSALTQPASVSGSPGQSITISCTGTSSDVGGYNYVSWYQQHPGKAPKLLIYEVTNWPSGVSNRFSGSKSGNTASLTISGLQAEDEADYYCSSYAGSSTWVFGGGTRVTVL

target: recombinant homotrimeric HA A/California/4/09 H1N1 (Influenza A virus A/California/04/2009(H1N1)); experiment: protein microarray, purified IgG, trimeric HA; settings: remark: other sources report otherwise

Point of comparison: B2, Trimeric HA Binding: RLU 266 RLU. Against it:
- B1 — higher, 18600 RLU

target: recombinant homotrimeric HA A/Japan/305/57 H2N2 (Influenza A virus A/Japan/305/1957(H2N2)); experiment: protein microarray, purified IgG, trimeric HA; settings: remark: other sources report otherwise

Point of comparison: B2, Trimeric HA Binding: RLU 29000 RLU. Against it:
- B1 — lower, 27000 RLU

target: recombinant homotrimeric HA A/Netherlands/219/03 H7N7 (Influenza A virus A/Netherlands/219/03(H7N7)); experiment: protein microarray, purified IgG, trimeric HA; settings: remark: other sources report otherwise

Point of comparison: B2, Trimeric HA Binding: RLU 191 RLU. Against it:
- B1 — higher, 15200 RLU

target: recombinant homotrimeric HA A/Hong Kong/2108/03 H9N2 (Influenza A virus A/HK/2108/2003(H9N2)); experiment: protein microarray, purified IgG, trimeric HA; settings: remark: other sources report otherwise

Point of comparison: B2, Trimeric HA Binding: RLU 164 RLU. Against it:
- B1 — higher, 18700 RLU

target: recombinant homotrimeric HA A/Vietnam/1203/04 H5N1 (Influenza A virus A/VietNam/1203/2004(H5N1)); experiment: protein microarray, purified IgG, trimeric HA; settings: remark: other sources report otherwise

Point of comparison: B2, Trimeric HA Binding: RLU 830 RLU. Against it:
- B1 — higher, 19800 RLU

target: recombinant homotrimeric HA A/northern shoveler/California/HKWF115/07 H6N4 (Influenza A virus A/northern shoveler/California/HKWF115/2007(H6N1)); experiment: protein microarray, purified IgG, trimeric HA; settings: remark: other sources report otherwise

Point of comparison: B1, Trimeric HA Binding: RLU 13200 RLU. Against it:
- B2 — lower, 76 RLU

target: recombinant homotrimeric HA A/Egypt/3300-NAMRU3/08 H5N1 (Influenza A virus A/Egypt/3300-NAMRU3/2008(H5N1)); experiment: protein microarray, purified IgG, trimeric HA; settings: remark: other sources report otherwise

Point of comparison: B1, Trimeric HA Binding: RLU 23900 RLU. Against it:
- B2 — lower, 860 RLU

target: recombinant homotrimeric HA A/Hong Kong/156/97 H5N1 (Influenza A virus A/Hong Kong/156/97 (H5N1)); experiment: protein microarray, purified IgG, trimeric HA; settings: remark: other sources report otherwise

Point of comparison: B2, Trimeric HA Binding: RLU 465 RLU. Against it:
- B1 — higher, 28600 RLU

target: recombinant homotrimeric HA A/Wisconsin/67/05 H3N2 (Influenza A virus A/Wisconsin/67/2005(H3N2)); experiment: protein microarray, purified IgG, trimeric HA; settings: remark: other sources report otherwise

Point of comparison: B1, Trimeric HA Binding: RLU 600 RLU. Against it:
- B2 — higher, 6900 RLU

target: recombinant homotrimeric HA A/Indonesia/5/05 H5N1 (Influenza A virus A/Indonesia/5/2005(H5N1)); experiment: protein microarray, purified IgG, trimeric HA; settings: remark: other sources report otherwise

Point of comparison: B1, Trimeric HA Binding: RLU 29600 RLU. Against it:
- B2 — lower, 139 RLU

target: recombinant homotrimeric HA A/Solomon Islands/3/06 H1N1 (Influenza A virus A/Solomon Islands/3/2006(H1N1)); experiment: protein microarray, purified IgG, trimeric HA; settings: remark: other sources report otherwise

Point of comparison: B2, Trimeric HA Binding: RLU 9360 RLU. Against it:
- B1 — higher, 22900 RLU

target: recombinant homotrimeric HA A/South Carolina/1/18 H1N1 (Influenza A virus A/South Carolina/1/18 (H1N1)); experiment: protein microarray, purified IgG, trimeric HA; settings: remark: other sources report otherwise

Point of comparison: B1, Trimeric HA Binding: RLU 314 RLU. Against it:
- B2 — lower, 139 RLU

target: recombinant homotrimeric HA A/Anhui/1/05 H5N1 (Influenza A virus A/Anhui/1/2005(H5N1)); experiment: protein microarray, purified IgG, trimeric HA; settings: remark: other sources report otherwise

Point of comparison: B2, Trimeric HA Binding: RLU 769 RLU. Against it:
- B1 — higher, 24700 RLU

target: recombinant homotrimeric HA A/chicken/Vietnam/NCVD-016/08 H5N1 (Influenza A virus A/chicken/Vietnam/NCVD-016/2008(H5N1)); experiment: protein microarray, purified IgG, trimeric HA; settings: remark: other sources report otherwise

Point of comparison: B1, Trimeric HA Binding: RLU 25200 RLU. Against it:
- B2 — lower, 338 RLU

target: recombinant soluble homotrimeric HA of A/Japan/305/57 (H2N2) (Influenza A virus A/Japan/305/1957(H2N2)); experiment: HA microarray, BCC supernatant; settings: remark: other sources report otherwise

Point of comparison: B2, Trimeric HA Binding: RLU 2970 RLU. Against it:
- B1 — higher, 19300 RLU

target: recombinant soluble homotrimeric HA of A/chicken/Vietnam/NCVD-016/08 (H5N1) (Influenza A virus A/chicken/Vietnam/NCVD-016/2008(H5N1)); experiment: HA microarray, BCC supernatant; settings: remark: other sources report otherwise

Point of comparison: B1, Trimeric HA Binding: RLU 27000 RLU. Against it:
- B2 — lower, 70 RLU

target: recombinant soluble homotrimeric HA of A/northern shoveler/California/HKWF115/07 (H6) (Influenza A virus A/northern shoveler/California/HKWF115/2007(H6N1)); experiment: HA microarray, BCC supernatant; settings: remark: other sources report otherwise

Point of comparison: B2, Trimeric HA Binding: RLU 131 RLU. Against it:
- B1 — higher, 30300 RLU

target: recombinant soluble homotrimeric HA of A/Netherlands/219/03 (H7N7) (Influenza A virus A/Netherlands/219/03(H7N7)); experiment: HA microarray, BCC supernatant; settings: remark: other sources report otherwise

Point of comparison: B1, Trimeric HA Binding: RLU 8890 RLU. Against it:
- B2 — lower, 381 RLU

target: recombinant soluble homotrimeric HA of A/Hong Kong/2108/03 (H9N2) (Influenza A virus A/HK/2108/2003(H9N2)); experiment: HA microarray, BCC supernatant; settings: remark: other sources report otherwise

Point of comparison: B2, Trimeric HA Binding: RLU 22 RLU. Against it:
- B1 — higher, 16000 RLU

target: recombinant soluble homotrimeric HA of A/Solomon Islands/3/06 (H1N1) (Influenza A virus A/Solomon Islands/3/2006(H1N1)); experiment: HA microarray, BCC supernatant; settings: remark: other sources report otherwise

Point of comparison: B2, Trimeric HA Binding: RLU 64 RLU. Against it:
- B1 — higher, 16500 RLU

target: recombinant soluble homotrimeric HA of A/duck/Yangzhou/02/05 (H8N4) (Influenza A virus A/duck/Yangzhou/02/2005(H8N4)); experiment: HA microarray, BCC supernatant; settings: remark: other sources report otherwise

Point of comparison: B1, Trimeric HA Binding: RLU 28800 RLU. Against it:
- B2 — lower, 117 RLU

target: recombinant soluble homotrimeric HA of A/Wisconsin/67/05 (H3N2) (Influenza A virus A/Wisconsin/67/2005(H3N2)); experiment: HA microarray, BCC supernatant; settings: remark: other sources report otherwise

Point of comparison: B1, Trimeric HA Binding: RLU 5720 RLU. Against it:
- B2 — lower, 728 RLU

target: recombinant soluble homotrimeric HA of A/Vietnam/1203/04 (H5N1) (Influenza A virus A/VietNam/1203/2004(H5N1)); experiment: HA microarray, BCC supernatant; settings: remark: other sources report otherwise

Point of comparison: B1, Trimeric HA Binding: RLU 21300 RLU. Against it:
- B2 — lower, 63 RLU

target: recombinant soluble homotrimeric HA of A/Indonesia/5/05 (H5N1) (Influenza A virus A/Indonesia/5/2005(H5N1)); experiment: HA microarray, BCC supernatant; settings: remark: other sources report otherwise

Point of comparison: B2, Trimeric HA Binding: RLU 31 RLU. Against it:
- B1 — higher, 23800 RLU

target: recombinant soluble homotrimeric HA of A/swine/Ontario/01911-2/99 (H4N6) (Influenza A virus A/Swine/Ontario/01911-2/99 (H4N6)); experiment: HA microarray, BCC supernatant; settings: remark: other sources report otherwise

Point of comparison: B2, Trimeric HA Binding: RLU 178 RLU. Against it:
- B1 — higher, 7690 RLU

target: recombinant soluble homotrimeric HA of A/Anhui/1/05 (H5N1) (Influenza A virus A/Anhui/1/2005(H5N1)); experiment: HA microarray, BCC supernatant; settings: remark: other sources report otherwise

Point of comparison: B2, Trimeric HA Binding: RLU 25 RLU. Against it:
- B1 — higher, 21400 RLU

target: recombinant soluble homotrimeric HA of A/California/4/09 (H1N1) (Influenza A virus A/California/04/2009(H1N1)); experiment: HA microarray, BCC supernatant; settings: remark: other sources report otherwise

Point of comparison: B2, Trimeric HA Binding: RLU 57 RLU. Against it:
- B1 — higher, 28000 RLU
